{"source": "paper PMC3974781", "target": "HA-ASIC2a (mouse acid-sensing ion channel 2a, HA epitope-tagged) (mouse) (UniProt Q925H0)", "sequence (Q925H0 whole entry)": "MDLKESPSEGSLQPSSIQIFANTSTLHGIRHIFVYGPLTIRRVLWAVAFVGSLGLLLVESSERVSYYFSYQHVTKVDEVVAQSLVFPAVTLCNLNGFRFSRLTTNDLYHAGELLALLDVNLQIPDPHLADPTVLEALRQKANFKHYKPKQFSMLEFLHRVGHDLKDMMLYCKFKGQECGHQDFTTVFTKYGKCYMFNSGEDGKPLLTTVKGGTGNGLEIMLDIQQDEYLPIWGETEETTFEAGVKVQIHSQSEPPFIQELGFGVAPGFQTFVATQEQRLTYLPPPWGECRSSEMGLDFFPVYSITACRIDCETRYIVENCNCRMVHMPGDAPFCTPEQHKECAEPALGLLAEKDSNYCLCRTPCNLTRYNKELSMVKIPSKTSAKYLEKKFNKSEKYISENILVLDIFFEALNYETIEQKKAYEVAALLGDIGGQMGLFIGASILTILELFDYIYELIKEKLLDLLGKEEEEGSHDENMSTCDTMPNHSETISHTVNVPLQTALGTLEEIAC"}
{"binder": "ASIC1a (mouse acid-sensing ion channel 1a) (natural protein) MELKTEEEEVGGVQPVSIQAFASSSTLHGLAHIFSYERLSLKRALWALCFLGSLAVLLCVCTERVQYYFCYHHVTKLDEVAASQLTFPAVTLCNLNEFRFSQVSKNDLYHAGELLALLNNRYEIPDTQMADEKQLEILQDKANFRSFKPKPFNMREFYDRAGHDIRDMLLSCHFRGEACSAEDFKVVFTRYGKCYTFNSGQDGRPRLKTMKGGTGNGLEIMLDIQQDEYLPVWGETDETSFEAGIKVQIHSQDEPPFIDQLGFGVAPGFQTFVSCQEQRLIYLPSPWGTCNAVTMDSDFFDSYSITACRIDCETRYLVENCNCRMVHMPGDAPYCTPEQYKECADPALDFLVEKDQEYCVCEMPCNLTRYGKELSMVKIPSKASAKYLAKKFNKSEQYIGENILVLDIFFEVLNYETIEQKKAYEIAGLLGDIGGQMGLFIGASILTVLELFDYAYEVIKHRLCRRGKCQKEAKRNSADKGVALSLDDVKRHNPCESLRGHPAGMTYAANILPHHPARGTFEDFTC", "values": [{"measurement": "pH50 of activation of acid-evoked currents in CHO cells coexpressing ASIC1a and ASIC2a (whole-cell patch clamp); ASIC1a alone pH50 = 6.7, ASIC2a alone pH50 = 4.0", "value": 5.4, "unit": "pH"}]}
